Laboratory results as given in PMC3784749.

Biological target: glutathione S-transferase from Schistosoma japonicum (Schistosoma japonicum)
Experiment: SAXS; GST alone in 20 mM phosphate, 80 mM NaCl, pH 8.0, 20 °C; shape reconstruction (GASBOR, DAMAVER) superimposed on crystal structure 1UA5

Substance: glutathione S-transferase from Schistosoma japonicum (enzyme)
- stoichiometry N: 2
